From US20150344570A1 (published 2015)

B1: GpH7-A5/GpH7-B3 variant K326_09D/GpL16-k0 (antibody, human IgG1, kappa)
heavy 1: not shown
heavy 2: not shown
light: DIVMTQSPLSLPVTPGEPASISCQASESLVHSNRNTYLHWYLQKPGQSPQLLIYKVSNRFSGVPDRFSGSGSGTDFTLKISRVEAEDVGVYYCSQNTHVPPTFGQGTKVEIERTVAAPSVFIFPPSDEQLKSGTASVVCLLNNFYPREAKVQWKVDNALQSGNSQESVTEQDSKDSTYSLSSTLTLSKADYEKHKVYACEVTHQGLSSPVTKSFNRGEC
notes: also called He Ab K326_09D
B2: GpH7-A5/GpH7-B3 variant A330_20W/GpL16-k0 (antibody, human IgG1, kappa)
heavy 1: not shown
heavy 2: not shown
light: B1 light
notes: also called He Ab A330_20W
B3: GpH7-A5/GpH7-B3 variant A330_04F/GpL16-k0 (antibody, human IgG1, kappa)
heavy 1: not shown
heavy 2: not shown
light: B1 light
notes: also called He Ab A330_04F
B4: GpH7-A5/GpH7-B3 variant I336_03V/GpL16-k0 (antibody, human IgG1, kappa)
heavy 1: not shown
heavy 2: not shown
light: B1 light
notes: also called He Ab I336_03V
B5: GpH7-A5/GpH7-B3 variant K334_13S/GpL16-k0 (antibody, human IgG1, kappa)
heavy 1: not shown
heavy 2: not shown
light: B1 light
notes: also called He Ab K334_13S
B6: GpH7-A5/GpH7-B3 variant K334_04F/GpL16-k0 (antibody, human IgG1, kappa)
heavy 1: not shown
heavy 2: not shown
light: B1 light
notes: also called He Ab K334_04F
B7: GpH7-A5/GpH7-B3 variant K326_10E/GpL16-k0 (antibody, human IgG1, kappa)
heavy 1: not shown
heavy 2: not shown
light: B1 light
notes: also called He Ab K326_10E
B8: GpH7-A5/GpH7-B3 variant H268_09D/GpL16-k0 (antibody, human IgG1, kappa)
heavy 1: not shown
heavy 2: not shown
light: B1 light
notes: also called He Ab H268_09D
B9: GpH7-A5/GpH7-B3 variant I336_02A/GpL16-k0 (antibody, human IgG1, kappa)
heavy 1: not shown
heavy 2: not shown
light: B1 light
notes: also called He Ab I336_02A
B10: GpH7-A5/GpH7-B3 variant K334_07I/GpL16-k0 (antibody, human IgG1, kappa)
heavy 1: not shown
heavy 2: not shown
light: B1 light
notes: also called He Ab K334_07I
B11: GpH7-A5/GpH7-B3 variant H268_10E/GpL16-k0 (antibody, human IgG1, kappa)
heavy 1: not shown
heavy 2: not shown
light: B1 light
notes: also called He Ab H268_10E
B12: GpH7-A5/GpH7-B3 variant K326_06M/GpL16-k0 (antibody, human IgG1, kappa)
heavy 1: not shown
heavy 2: not shown
light: B1 light
notes: also called He Ab K326_06M
B13: GpH7-A5/GpH7-B3 variant K334_02A/GpL16-k0 (antibody, human IgG1, kappa)
heavy 1: not shown
heavy 2: not shown
light: B1 light
notes: also called He Ab K334_02A
B14: GpH7-A5/GpH7-B3 variant I332_14T/GpL16-k0 (antibody, human IgG1, kappa)
heavy 1: not shown
heavy 2: not shown
light: B1 light
notes: also called He Ab I332_14T
B15: GpH7-A5/GpH7-B3 variant H268_13S/GpL16-k0 (antibody, human IgG1, kappa)
heavy 1: not shown
heavy 2: not shown
light: B1 light
notes: also called He Ab H268_13S
B16: GpH7-A5/GpH7-B3 variant K334_10E/GpL16-k0 (antibody, human IgG1, kappa)
heavy 1: not shown
heavy 2: not shown
light: B1 light
notes: also called He Ab K334_10E
B17: GpH7-A5/GpH7-B3 variant K334_03V/GpL16-k0 (antibody, human IgG1, kappa)
heavy 1: not shown
heavy 2: not shown
light: B1 light
notes: also called He Ab K334_03V
B18: GpH7-A5/GpH7-B3 variant I332_19Q/GpL16-k0 (antibody, human IgG1, kappa)
heavy 1: not shown
heavy 2: not shown
light: B1 light
notes: also called He Ab I332_19Q
B19: GpH7-A5/GpH7-B3 variant I336_06M/GpL16-k0 (antibody, human IgG1, kappa)
heavy 1: not shown
heavy 2: not shown
light: B1 light
notes: also called He Ab I336_06M
B20: GpH7-A5/GpH7-B3 variant K326_07I/GpL16-k0 (antibody, human IgG1, kappa)
heavy 1: not shown
heavy 2: not shown
light: B1 light
notes: also called He Ab K326_07I
B21: GpH7-A5/GpH7-B3 variant K334_05P/GpL16-k0 (antibody, human IgG1, kappa)
heavy 1: not shown
heavy 2: not shown
light: B1 light
notes: also called He Ab K334_05P
B22: GpH7-A5/GpH7-B3 variant I336_10E/GpL16-k0 (antibody, human IgG1, kappa)
heavy 1: not shown
heavy 2: not shown
light: B1 light
notes: also called He Ab I336_10E

Target: T1, FcγRIIIa extracellular domain with C-terminal His tag (human, UniProt P08637 17-208)
T1 construct: extracellular domain; also called FcgRIIIa; 3a; not shown: His tag attached to the C terminus
Experiment: SPR Biacore, captured antibody, FcγR analyte, relative binding
Protocol: Analysis of interaction between objective antibody and the FcγR was carried out using Biacore T100 (GE Healthcare). HBS-EP+ (GE Healthcare) was used as the running buffer, and the measurement temperature was set to 25° C. Chips produced by immobilizing the antigen peptide by the amine coupling method to a Series S Sencor Chip CM5 (GE Healthcare), or alternatively, chips produced by allowing preliminarily biotinylated antigen peptides to interact with and immobilize onto a Series S Sensor Chip SA (certified) (GE Healthcare) were used. Antibodies of interest were captured onto an antigen peptide-immobilized chip, and allowed to interact to each FcγR diluted with running buffer. To regenerate and repeatedly use the chip, the antibodies captured on the chip were washed off by reacting 10 mM glycine-HCl, pH 1.5.

T1 sequence (P08637 17-208): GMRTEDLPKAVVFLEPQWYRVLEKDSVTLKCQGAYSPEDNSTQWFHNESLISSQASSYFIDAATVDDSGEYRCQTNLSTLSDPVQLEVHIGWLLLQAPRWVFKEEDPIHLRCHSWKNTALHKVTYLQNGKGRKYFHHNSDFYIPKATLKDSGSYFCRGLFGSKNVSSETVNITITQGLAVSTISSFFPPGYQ

Row | He/Con_3a | Binder
1 | 134 % of HeCon Ab GpH7-A5/GpH7-B3/GpL16-k0 (=100) | B1
2 | 104 % of HeCon Ab GpH7-A5/GpH7-B3/GpL16-k0 (=100) | B2
3 | 147 % of HeCon Ab GpH7-A5/GpH7-B3/GpL16-k0 (=100) | B3
4 | 112 % of HeCon Ab GpH7-A5/GpH7-B3/GpL16-k0 (=100) | B4
5 | 145 % of HeCon Ab GpH7-A5/GpH7-B3/GpL16-k0 (=100) | B5
6 | 148 % of HeCon Ab GpH7-A5/GpH7-B3/GpL16-k0 (=100) | B6
7 | 124 % of HeCon Ab GpH7-A5/GpH7-B3/GpL16-k0 (=100) | B7
8 | 197 % of HeCon Ab GpH7-A5/GpH7-B3/GpL16-k0 (=100) | B8
9 | 111 % of HeCon Ab GpH7-A5/GpH7-B3/GpL16-k0 (=100) | B9
10 | 151 % of HeCon Ab GpH7-A5/GpH7-B3/GpL16-k0 (=100) | B10
11 | 186 % of HeCon Ab GpH7-A5/GpH7-B3/GpL16-k0 (=100) | B11
12 | 115 % of HeCon Ab GpH7-A5/GpH7-B3/GpL16-k0 (=100) | B12
13 | 147 % of HeCon Ab GpH7-A5/GpH7-B3/GpL16-k0 (=100) | B13
14 | 120 % of HeCon Ab GpH7-A5/GpH7-B3/GpL16-k0 (=100) | B14
15 | 122 % of HeCon Ab GpH7-A5/GpH7-B3/GpL16-k0 (=100) | B15
16 | 181 % of HeCon Ab GpH7-A5/GpH7-B3/GpL16-k0 (=100) | B16
17 | 150 % of HeCon Ab GpH7-A5/GpH7-B3/GpL16-k0 (=100) | B17
18 | 110 % of HeCon Ab GpH7-A5/GpH7-B3/GpL16-k0 (=100) | B18
19 | 109 % of HeCon Ab GpH7-A5/GpH7-B3/GpL16-k0 (=100) | B19
20 | 139 % of HeCon Ab GpH7-A5/GpH7-B3/GpL16-k0 (=100) | B20
21 | 134 % of HeCon Ab GpH7-A5/GpH7-B3/GpL16-k0 (=100) | B21
22 | 119 % of HeCon Ab GpH7-A5/GpH7-B3/GpL16-k0 (=100) | B22
